For the data set, the target named is APOBEC3G (A3G) (UniProt Q9HC16 1-384). Nature of the data set: AFM force spectroscopy; two binding modes; stronger and more stable complexes than with nonspecific ssDNA; Force spectroscopy probing buffer: 50 mM HEPES, 100 mM NaCl, 5 mM MgCl2, 1 mM DTT (pH and temperature not given); imaging buffer not in the material. To be noted: protein: recombinant; tags: mycHis (C-terminal).
Sequence of APOBEC3G (A3G) (Q9HC16 whole entry): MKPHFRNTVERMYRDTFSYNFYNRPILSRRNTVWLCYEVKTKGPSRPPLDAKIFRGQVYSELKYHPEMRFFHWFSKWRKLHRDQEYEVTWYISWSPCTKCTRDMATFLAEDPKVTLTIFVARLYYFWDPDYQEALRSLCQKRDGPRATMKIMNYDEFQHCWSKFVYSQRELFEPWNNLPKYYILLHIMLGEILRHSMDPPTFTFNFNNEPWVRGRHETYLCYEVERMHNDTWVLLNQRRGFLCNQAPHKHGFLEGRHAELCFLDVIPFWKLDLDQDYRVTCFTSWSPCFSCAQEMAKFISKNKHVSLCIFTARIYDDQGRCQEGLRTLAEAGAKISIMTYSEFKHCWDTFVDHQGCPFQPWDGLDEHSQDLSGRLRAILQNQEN

B1: 69 nt deaminase specific ssDNA (ssDNA)
DNA: TACGTGTAGGAATTATATTAAAGAGAAAGTGAAACCCAAAGAATGAAAACCCAAATGTTAGAATTGTTA
modifications: 5' thiol
Take B1: the binding result is listed as “binds”.

Source of the values: paper PMC4621513, “APOBEC3G Interacts with ssDNA by Two Modes: AFM Studies”.
